Results as given in the supplement of paper PMC10567573.
± gives the standard deviation.

Experiment: protein stability index of a GFP-peptide fusion (GPS, HEK-293T) (PSI 1-6); higher = more stable
Details: c terminus: a fixed tail appended
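Also: 24-mer peptide tiles fused after GFP, lentivirally expressed, FACS-sorted into six equal bins by GFP/DsRed ratio, decoded by Illumina sequencing, PSI is the read-weighted mean bin number.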

| Sequence | protein stability index (treatment: DMSO) | protein stability index (treatment: MLN4924 1 uM, 8 h) |
| --- | --- | --- |
| AGEREDLWAGSKGKEFGYFPRDAV [MIA2] | 3.47 ± 0.15 | 3.86 ± 0.51 |
| LATLDPLALDREPPPHLLPEKHQV [WDR88] | 4.06 ± 0.22 | 4.24 ± 0.16 |
| MPLREGSSFQDLLGDALAGPPRAP [HES6] | 3.86 ± 0.34 | 4.05 ± 0.4 |
| NENPNNFQILLLSDPSTIEASNFQ [PNLIPRP1] | 3.33 ± 0.36 | 3.44 ± 0.5 |
| SHAAPGPSPDSWVPRPGTPQSPPS [FCHO1] | 5.12 ± 0.47 | 5.05 ± 0.62 |
| DKLKIDLLPDGRHAVVEVEDVPLA [TAF7L] | 4.61 ± 0.15 | 4.8 ± 0.24 |
| QWNAGEKKLTGGANWQPKVAPATW [SNAP91] | 2.98 ± 0.33 | 3.07 ± 0.14 |
| ENWVCLSCYQVYCGRYINGHMLQH [HDAC6] | 2.33 ± 0.76 | 2.54 ± 0.46 |
| FGDVSERLALRQRLKCRSFKWYLE [GALNT9] | 2.29 ± 0.59 | 2.54 ± 0.37 |
| PQCIKEEDTPSDNDSGICMSPESY [ATF4] | 5.2 ± 0.23 | 5.28 ± 0.1 |
| RGSVARPTQGPETPRSPEGTTEAA [PXN] | 5.39 ± 0.3 | 5.31 ± 0.17 |
| AQSAGTQQVAAVSSVSPATPFQSV [BRD3] | 4.42 ± 0.19 | 4.37 ± 0.11 |
| KELRDGGEQDTWAGEGAEALARNL [NFE2L1] | 5.26 ± 0.25 | 5.36 ± 0.27 |
| ASSMLRKSQLGFLNVTNYCHLAHE [DCAF4] | 2.2 ± 0.41 | 2.42 ± 0.16 |
| TPVMEGYVEVKEGKTWKQICDKHW [LOXL2] | 3.28 ± 0.32 | 3.51 ± 0.37 |
| KEENEAESDVKHRTRDYKKTSLAP [PRIM1] | 5.37 ± 0.23 | 5.37 ± 0.41 |
| RSLNVFVKEDDKLIFHRHPVAQST [SPSB1] | 3.15 ± 0.18 | 3.36 ± 0.26 |
| CKKAFREGSRKSSRVKGSAPEIDP [KMT2E] | 4.46 ± 0.15 | 4.48 ± 0.15 |
| LAEAKYYLVQGLVEECQAALQNKD [KCTD10] | 3.24 ± 0.17 | 3.38 ± 0.29 |
| KIQLRLAGQKRKHSEGRVEVYYDG [LOXL2] | 3.09 ± 0.33 | 3.88 ± 0.67 |
| LSDKSCQSFISWTGDGWEFKLADP [ETS2] | 2.49 ± 0.22 | 2.59 ± 0.36 |
| SWGIAGETELALVKESGERKVTDS [DLC1] | 5.14 ± 0.3 | 5.46 ± 0.19 |
| ALEFWRQEELTRINQSFTGAERKA [IQUB] | 3.87 ± 0.52 | 3.73 ± 0.43 |

| Sequence | protein stability index (treatment: DMSO) | protein stability index (treatment: MLN4924 1 uM, 8 h) |
| --- | --- | --- |
| TEAESEQEGSSGMELSWGQSPGQP [TEX19] | 5.43 ± 0.24 | 5.26 ± 0.25 |
| GFHKAGSMLPPVNFSIVPYEKKFD [SPATS1] | 3.64 ± 0.087 | 3.54 ± 0.054 |
| DKPLPPPPPGSLSRTQEPSLGKQK [SOAT2] | 5.27 ± 0.28 | 5.41 ± 0.21 |
| LEDSTMGSVADTVARVLRGCLENM [PLK2] | 2.79 ± 0.32 | 2.96 ± 0.38 |
| HSIINALKAKLQMTEAALALSEQK [LRRC45] | 2.63 ± 0.087 | 2.74 ± 0.27 |
| KYFGCELGAQTQFDVKNDRYIVNG [EIF5] | 3.08 ± 0.35 | 3.27 ± 0.26 |
| VIDGRNVTVTDVDIVFSKIKGKSC [TPPP] | 2.6 ± 0.3 | 2.75 ± 0.41 |
| LEISDQEVLEWYTAKDFIVGKSLT [EFHC1] | 3.06 ± 0.22 | 2.92 ± 0.3 |
| AAAGEQASGAEAEPGPAGPPPPPS [BTBD1] | 5.446 ± 0.021 | 5.52 ± 0.19 |
| SGVSDYDYLDLDKMSLYSEADSGY [TRIM9] | 4.14 ± 0.19 | 3.76 ± 0.46 |
| LLNAASTVARPVFTEYQASAFGNV [RHOBTB3] | 2.48 ± 0.21 | 2.72 ± 0.31 |
| SFIIYLKNIVIADFVMSLTFPFKI [P2RY14] | 3.16 ± 0.29 | 3.22 ± 0.4 |
| PSSPLRLGSYKAQKTSRSSSIPCS [PPEF2] | 3.86 ± 0.24 | 3.95 ± 0.21 |
| DQVSACIPVFRLARRRKKILFYCH [ALG2] | 2.22 ± 0.47 | 2.24 ± 0.075 |
| LPCVVQEGAIVMARGRHVGSSETN [PYCR3] | 4.42 ± 0.36 |  |
| RPQGPQLRQQQHKQNKQVLGYCLL [DNAJC4] | 2.52 ± 0.22 | 2.38 ± 0.23 |
| GKTWKQICDKHWTAKNSRVVCGMF [LOXL2] | 2.06 ± 0.46 | 2.18 ± 0.46 |
| RADAHLGSSSVALPKEASDGTGAS [TOR1AIP2] | 5.5 ± 0.24 | 5.33 ± 0.12 |
| GSRYDARRGVSDWDLRMKLHDRGA [DNAAF3] | 3.61 ± 0.23 | 3.66 ± 0.42 |
| HKPLLICSCEWMAAMFGGSFVESA [RHOBTB1] | 2.72 ± 0.79 | 2.46 ± 0.85 |
| LTQDWVQENYLEYRQVPGSDPARY [MAGEA10] | 4.06 ± 0.22 | 3.88 ± 0.2 |
| FLNDRLANYLEKVRQLERENAELE [KRT36] | 3.21 ± 0.25 | 3.54 ± 0.49 |
